Source: patent publication US20090110693A1 (IMAXIO, published 2009)

Target: the molecule itself
Test: self-association, SDS-PAGE with and without reducing agent

B1: AVD259 protein (chicken C4 bp oligomerisation domain with N-terminal leader) (other)
chain: MALKKHHENEISHHGSKKQGDADVCGEVAYIQSVVSDCHVPTEDVKTLLEIRKLFLEIQKLKVELQGLSKEFLEHILH
notes: Expressed in E. coli; On a non-reducing gel, monomer to heptamer bands are seen because disulphide formation is incomplete; the heptamer is the highest species; also called recombinant AVD259 protein
binding result: binds

B2: AVD262 fusion protein (Plasmodium yoelii MSP1.19-chicken C4 bp oligomerisation domain) (other)
chain: MRSHIASIALNNLNKSGLVGEGESKKILAKMLNMDGMDLLGVDPKHVCVDTRDIPKNAGCFRDDNGTEEWRCLLGYKKGEGNTCVENNNPTCDINNGGCDPTASCQNAESTENSKKIICTCKEPTPNAYYEGVFCSSSGSKKQGDADVCGEVAYIQSVVSDCHVPTEDVKTLLEIRKLFLEIQKLKVELQGLSKEFLEHILH
notes: Runs as a disulphide-linked heptamer of about 140 kDa without reducing agent
binding result: binds
